# Assay results: paper PMC8463545, “The predatory soil bacterium Lysobacter reprograms quorum sensing system to regulate antifungal antibiotic production in a cyclic-di-GMP-independent manner” (Communications Biology, 2021)
# B1: HtsH1C-Flag-His (domain or fragment)
# chain: not shown
# modifications: Phosphorylated as purified (CIAP-sensitive). Limits from the expression primers: (M)AKTRFL... to ...LFEREA, just before the His-kinase domain to the C-terminus. The start codon Met and Flag/His tags …
# B2: HtsH3C-Myc-His (domain or fragment)
# chain: not shown
# modifications: Phosphorylated as purified (CIAP-sensitive). Primers give (M)AKTRFL... to ...ARRGEG (C-terminus). Positions are inferred from the candidate's His-kinase domain start. Assignment of this entry to …
# B3: HtsH2C-HA-His (domain or fragment)
# chain: not shown
# modifications: Phosphorylated as purified (CIAP-sensitive). Primers give (M)AKTRFL... to ...DAADAP (C-terminus). The candidate lists no features, so the start is estimated from the paralogues' fragment lengths and …
# What was measured:
# Conditions in all cases: both partners purified
# RpfG-MBP = target: T1, RpfG-MBP (Lysobacter enzymogenes); test: SPR; RpfG-MBP on the sensor, HtsH cytoplasmic fragments bound to it; conditions not given
# T1 chain: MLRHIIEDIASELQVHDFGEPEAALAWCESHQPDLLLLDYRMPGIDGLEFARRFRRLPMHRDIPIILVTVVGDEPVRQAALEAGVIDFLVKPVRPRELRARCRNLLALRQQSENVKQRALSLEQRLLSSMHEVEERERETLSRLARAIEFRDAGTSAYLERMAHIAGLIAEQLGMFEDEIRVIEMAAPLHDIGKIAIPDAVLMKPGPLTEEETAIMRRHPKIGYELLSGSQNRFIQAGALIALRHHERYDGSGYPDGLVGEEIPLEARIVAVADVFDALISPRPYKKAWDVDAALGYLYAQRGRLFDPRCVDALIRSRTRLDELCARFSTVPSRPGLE
# HtsH2C-HA-His = HtsH2C-HA-His (Lysobacter enzymogenes); test: SPR; HtsH cytoplasmic fragments against each other (Supplementary Fig. 5); who was immobilised and conditions not told
# HtsH3C-Myc-His = HtsH3C-Myc-His (Lysobacter enzymogenes); test: as above
Binder,Kd (RpfG-MBP) [nM],Kd (HtsH2C-HA-His) [nM],Kd (HtsH3C-Myc-His) [nM]
B1,66.8,96.2,160
B2,168,,
B3,300,,178
